The target of assay [1] is GRK5-phosphorylated ACKR3·CXCL12_(LRHQ) (UniProt P25106). Briefly: pull-down.
Assay [2] addresses T1, preactivated arrestin3 (truncated after residue 392) (bovine, UniProt P32120).
T1 chain: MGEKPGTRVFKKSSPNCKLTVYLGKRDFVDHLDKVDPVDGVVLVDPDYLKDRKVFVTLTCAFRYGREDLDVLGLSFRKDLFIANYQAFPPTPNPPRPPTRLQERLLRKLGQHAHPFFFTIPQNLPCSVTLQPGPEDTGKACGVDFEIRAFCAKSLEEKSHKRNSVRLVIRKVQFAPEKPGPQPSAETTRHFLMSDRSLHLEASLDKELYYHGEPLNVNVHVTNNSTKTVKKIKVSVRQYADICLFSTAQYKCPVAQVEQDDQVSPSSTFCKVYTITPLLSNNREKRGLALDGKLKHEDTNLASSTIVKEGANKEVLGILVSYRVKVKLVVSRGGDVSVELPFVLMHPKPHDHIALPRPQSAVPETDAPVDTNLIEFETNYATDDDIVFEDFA
Briefly: ELISA. Background: In an ELISA, binding on a coated surface is turned into a signal by an enzyme label.

In assay [3] the target is T2, biotinylated Arr3* loaded with inositol hexakisphosphate (IP6) (bovine, UniProt P32120, biotin (EZ-link sulfo-NHS-Biotin; sites not stated)).
T2 chain: T1 chain
Put plainly: ELISA.

Turning to “preactivated arrestin2 (I386A, V387A, F388A mutations in its C-tail) (from UniProt P17870 1-418) (natural protein)”, the percent more pulled down than by pACKR3 (GRK2) in assay [1] amounted to 30%. Still for that read-out and setting: the same measure for “preactivated arrestin3 (truncated after residue 392) (from UniProt P32120 1-392) (domain or fragment)”: 40%.

B1: Fab7 (antigen binding fragment that recognizes active arrestin2 and arrestin3) (Fab, V domains shown)
VH: EVQLVESGGGLVQPGGSLRLSCAASGFNVSSSYIHWVRQAPGKGLEWVASISSYYGYTYYADSVKGRFTISADTSKNTAYLQMNSLRAEDTAVYYCARKSMYHRGWGWLSWVYGAMDYWGQGTLVTVSS
VL: DIQMTQSPSSLSASVGDRVTITCRASQSVSSAVAWYQQKPGKAPKLLIYSASSLYSGVPSRFSGSRSGTDFTLTISSLQPEDFATYYCQQSYYYPITFGQGTKVEIK
In the case of B1, the IC50 in assay [2] is roughly 90 nM. Further, the EC50 in assay [3] was roughly 10 nM.

Usually IC50 stands for the concentration that inhibits the measured activity by half. A lower IC50 goes with greater potency. As usually defined, the EC50 is the concentration needed to bring the measured effect to its halfway point. A lower EC50 goes with greater potency.
